The values that follow come from US20260193375A1 (NORMUNITY, published 2026).

In assay [1] the target is T1, hLY6K-his (human, UniProt Q17RY6 18-138, limits assumed).
T1 construct: not shown: his tag
T1 sequence: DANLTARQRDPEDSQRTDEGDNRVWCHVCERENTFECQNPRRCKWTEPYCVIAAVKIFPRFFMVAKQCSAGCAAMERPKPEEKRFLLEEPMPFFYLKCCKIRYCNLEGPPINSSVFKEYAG
As to the kind of experiment: SPR (Carterra LSA), mAb captured on anti-human IgG-Fc, antigen as analyte.

Assay [2] has as its target T2, hLY6K-mFc (human, UniProt Q17RY6 18-138).
T2 construct: not shown: mFc
T2 sequence: T1 sequence
Described as above.

In assay [3] the target is T3, cynomolgus monkey LY6K (R&D Systems) (cynomolgus monkey).
T3 construct: also called cyLY6K
As to the kind of experiment: ELISA, coated antigen, IgG1 at 10 ug/ml. (In general: In an ELISA, binding on a coated surface is turned into a signal by an enzyme label.)

For assay [4], the target named is T4, rat LY6K (R&D Systems) (rat).
T4 construct: also called rLY6K
As to the kind of experiment: ELISA, coated antigen, IgG1 at 10 ug/ml.

Assay [5] has as its target T5, human LY6E (R&D Systems) (human, UniProt Q16553 21-101, limits assumed).
T5 construct: also called hLY6E
T5 sequence (looked up): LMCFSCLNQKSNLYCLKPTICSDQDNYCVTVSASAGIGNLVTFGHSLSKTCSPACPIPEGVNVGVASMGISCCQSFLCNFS
As to the kind of experiment: ELISA, coated antigen, IgG1 at 10 ug/ml.

Assay [6] deals with T6, Ly6D.
T6 chain: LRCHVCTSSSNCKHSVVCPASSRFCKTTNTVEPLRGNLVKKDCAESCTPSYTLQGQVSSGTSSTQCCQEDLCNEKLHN
As to the kind of experiment: ELISA, antigen coated on the plate, antibody as human IgG1, anti-human F(ab)2 HRPO.

For assay [7], the target named is T7, Ly6H.
T7 chain: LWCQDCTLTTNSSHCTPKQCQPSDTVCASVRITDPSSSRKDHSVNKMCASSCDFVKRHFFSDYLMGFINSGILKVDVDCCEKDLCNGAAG
Described as above.

Assay [8] addresses T5, human LY6E (R&D Systems). The description is as above.
The target in assay [9] is T8, Human LY6K (R&D Systems) (human, UniProt Q17RY6 18-138, limits assumed).
T8 construct: Bought from R&D Systems, coated on ELISA plates; also called hLY6K
T8 sequence: T1 sequence
As to the kind of experiment: ELISA, coated antigen, IgG1 at 10 ug/ml.

Where a chain is given by its changes, count along the chain named.

B1: anti-LY6K antibody 2659 (antibody, V domains shown)
VH: EVQLVESGGGLVQPGRSLRLSCAASGFTFDDYAMHWVRQAPGKGLEWVSGISWKSGIIGYADSVKGRFTISRDNAKNSLYLQMNSLRAEDTALYYCAKDSRTGLDYWGQGTLVTVSS
VL: not shown
notes: Has values only in SPR (CHO supernatant, captured by anti-human IgG-Fc)
For B1, the values for the Kd in assay [1] and in assay [2] were 6.13 nM and 0.034 nM, respectively.

B2: anti-LY6K antibody 3514 (antibody, V domains shown)
VH: QVQLVQSGAEVKKPGASVKVSCKASGYTFTSYGISWVRQATGQGLEWMGWMNPNSGNTGYAQKFQGRVTMTRNTSISTAYMELSSLRSEDTAVYYCRAAGYYYYYYYMDVWGKGTTVTVSS
VL: not shown
B2: the “% of maximum of commercial anti-LY6K mAb on human LY6K” value (“% of maximum … on human LY6K” for short) in assay [3] amounted to 2.6%; in assay [4], 0%; in assay [5], 2.9%.

B3: anti-LY6K antibody 3518 (antibody, V domains shown)
VH: EVQLVESGGGLVQPGGSLKLSCAASGFTFSGSAMNWVRQASGKGLEWVGRIRSKANSYATAYAASLKGRFTISRDDSKNTAYLQMNSLKTEDTAVYYCTVTPFDYWGQGTLVTVSS
VL: DIQMTQSPSSLSASVGDRVTITCQASQDISNHLNWYQQKPGKAPKLLINDASNLETGVPSRFSGSGSGTDFTFTISSLQPEDIATYYCQQYDNVPYTFGQGTKLEIK
As for B3, the entries for the “% of maximum … on human LY6K” value in assay [3], in assay [4] and in assay [5] were 2.7%, 2.1% and 2.1%, respectively.

B4: anti-LY6K antibody 3719 (antibody, V domains shown)
VH: EVQLVESGGGLVQPGRSLRLSCTASGFTFNDYAMHWVRQAPGKGLEWVSGISWNSNNIDYADSVKGRFTISRDNAKNSLYMQMNSLRAEDTALYYCAKDGPGTTNDAFDIWGQGTMVTVSS
VL: DIQMTQSPSSLSASVGDRVTITCRASHSISSYLNWYQQKPGKAPKLLIYAASSLQSGVPSRFSGSGSGTDFTLTISSLQPEDFATYYCHQGYSTPLTFGGGTKVEIK
Turning to B4, the results for the “% of maximum … on human LY6K” value in [3], in assay [4] and in assay [5] were 0.8%, -1.7% and 4.2%, respectively. Moreover, the binding result in assay [6], in assay [7] and in assay [8] was “no binding (tested: 10 µg/ml)” throughout.

B5: anti-LY6K antibody 3501 (antibody, V domains shown)
VH: EVQLVESGGGLVQPGRSLRLSCAASGFTFDDYAMHWVRQAPGKGLEWVSGISWNSGTIDYADSVKGRFTISRDNAKNSLYLQVNSLRAEDTALYYCAKDSPQKDYYYMDVWGKGTTVTVSS
VL: B4 VL with A25T, H27Q, K45N, H89Q, G91S, S93I, L96I, G100Q, K103R, V104L
Take B5: the “% of maximum … on human LY6K” value was 2% in [3], 0.4% in assay [4] and 4.3% in [5]. Besides, the binding result in [6], in assay [7] and in assay [8] was “no binding (tested: 10 µg/ml)” throughout.

B6: anti-LY6K antibody 3527 (antibody, V domains shown)
VH: EVQLVESGGGLVKPGGSLRLSCAASGFTFSSYSMNWVRQAPGKGLEWVSSISSTSSYIYYADSVKGRFTISRDNAKNSLYLQMNSLRAEDTAVYYCARSDYYDSGSYKNYYYYYMDVWGKGTTVTVSS
VL: B4 VL with A25T, H27Q, Y36F, L46V, S56R, H89Q, G91S
On to B6, for which the “% of maximum … on human LY6K” value worked out at 54.6% in assay [9], 58% in [3], 1.1% in [4] and 4.6% in [5].

B7: anti-LY6K antibody 3743 (antibody, V domains shown)
VH: EVQLVESGGGLVHPGRSLRLSCAASGFTFDDYAMHWVRQAPGKGLEWVSGISWKSGRIDYADSVKGRFTISRDNAKNSLYLQMNSLRAEDTALYYCAKDRRELTFDIWGQGTMVTVSS
VL: DIVMTQTPLSSPVTLGQPASISCRSSQSLEHSNGNTYLSWLQQRPGQPPRLLIYKISNRFSGVPDRFSGSGAGTDFTLKISRVEAEDVGVYYCMQTTQFPLTFGGGTKVEIK
Consider B7, for which the figures for the “% of maximum … on human LY6K” value in [3], in assay [4] and in assay [5] were 3.5%, 2.6% and 5%, respectively.

B8: anti-LY6K antibody 3056 (antibody, V domains shown)
VH: EVQLVESGGGLVQPGRSLRLSCAASGFTYDDYAMHWVRQVPGKGLEWVSGITWKKSIIGYADSVRGRFTVSRDSAKNSLYLQMSSLRVEDTALCYCAKDSTDGLDYWGQGTLVTVSS
VL: B7 VL with I21L, E30L, A85G, T96A, Q98E, L101Y, G105Q, V109L
notes: as for B1
As to B8, the Kd worked out at 0.472 nM in assay [1] and 0.0233 nM in assay [2].

B9: anti-LY6K antibody 3063 (antibody, V domains shown)
VH: EVQLVESGGGLVKPGRSLRLSCAASGFTFDDFAMHWVRQAPGKGLEWVSGLSWKGHTLGYADSVKGRFTFSRDSAKNSLYLQMNSLRAEDTALYYCAKDTRSGLDYWGQGTLVTVSS
VL: B7 VL with N33D, S70N, V90I, T96A, Q98E, L101F
Take B9: the “% of maximum … on human LY6K” value in assay [3] was 2.6%; in [4] it was -0.2%; in assay [5] it was 4.2%. Further, the binding result in assay [6], in assay [7] and in assay [8] was “no binding (tested: 10 µg/ml)” in each case.

B10: anti-LY6K antibody 3055 (antibody, V domains shown)
VH: EVQLVESGGGLVQPGRSLRLSCAASGFTFDDFAMHWVRQAPGKGLEWVSGISWNTGTIGYADSVKGRFTISRDNAKNSLYLQMNSLRAEDTALYYCAKDKGTTGFDYWGQGTLVTVSS
VL: DIQMTQSPSSVSASVGDRVTITCRASQGISRWLVWYQQKPGKAPKLLIYAASSLQSGVPSRFSGSGSGTDFTLTISSLQPEDFATYYCQQANSFPRTFGQGTRLEIK
With B10, the figures for the “% of maximum … on human LY6K” value in [9], in [3] and in assay [4] were 22.6%, 40.3% and 0.4%, respectively.

B11: anti-LY6K antibody 3553 (antibody, V domains shown)
VH: QVQLVQSGAEVKKPGASVKVSCKASGYTFTGYYMHWVRQAPGTGLDWMGWISPNSGGTNYAQKFQGRVTMTRDTSISTVYMELSRLRSDDTALYYCAREVGNYWGQGTLVTVSS
VL: DIQMTQSPTSLSTSVGDRVTITCQASQDIYNYLNWYQLKPGKAPKLLIYDASNLERGVTSRFSGSGSGTDFTFTISSLQPEDIATYYCQQYDSLPITFGQGTRLEIK
For B11, the “% of maximum … on human LY6K” value in assay [9] amounted to 26%; in assay [3], 28.9%; in [4] it was 2.4%; in assay [5], 5%.

B12: anti-LY6K antibody 3102 (antibody, V domains shown)
VH: QVQLVQSGAEVKKPGASVKVSCKASGYTFTGYYIHWMRQAPGQGLEWMGWINPNSGGTNYAQNFQGRVTMTRDTSINTAYMELSRLKSDDTAVYYCAKESGSPWGQGTLVTVSS
VL: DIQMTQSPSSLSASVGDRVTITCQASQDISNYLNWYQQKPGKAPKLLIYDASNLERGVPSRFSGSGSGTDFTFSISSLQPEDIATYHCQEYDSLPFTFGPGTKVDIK
For B12, the “% of maximum … on human LY6K” value is 38.4% in [9], 40.1% in assay [3], 0.2% in assay [4] and 3.8% in assay [5].

One may read the Kd as the constant that tells how readily two partners part at equilibrium.
